The record followed here is US20210379147A1, “METHOD AND SYSTEM FOR TREATING CANCER UTILIZING TINAGL1” (The Trustees of Princeton University, priority 2018, published 2021).

Series [1] is described as follows: Toxicity assessment in r-Tinagl1 treated mice (body weight, CBC, H&E and Alcian blue staining, ALT, AST). The series is classed as in vivo. As to conditions: ALT and AST activity. The text has this:
To test if recombinant Tinagl1 protein (r-Tiangl1) treatment would slow tumor progression, full length recombinant human Tinagl1 with 6×His tag at the C-terminus (r-Tinagl1) was expressed in HEK293T cells and r-Tinagl1 was purified from the culture media using Ni^2+-NTA purification system. r-Tinagl1 was used to treat orthotopically implanted mammary tumors.

Series [2] deals with LM2 cells. Nature of the series: LM2 orthotopic tumors, single or combined agent treatment. The series is classed as in vivo, NSG female mice. The method, then:
FIG. 17A is an image of WB analyses where NSG female mice were injected with 10^4 LM2 cells by MFP injection, and intravenously treated with the indicated reagents twice per week when tumors reached to 2 mm in dimeter, then after 5 weeks of the treatments, the primary tumors of each group were collected and activation of EGFR and FAK in primary tumor of each group were tested by WB.
FIG. 17B is a graph illustrating tumor volumes of each treatment group from FIG. 17A.
FIG. 17C is a graph, quantifying ex vivo BLI results where lungs in mice from FIG. 17A were collected and spontaneous metastasis was examined at the endpoint.
Two molecular targeting reagents, ATN-161 (ATN) and Erlotinib (Erlo) were employed. ATN is an integrin α5β1 antagonist that inhibits the integrin signaling pathway and slows tumor progression. Erlotinib is a well-established small molecular inhibitor of EGFR and is clinically approved for cancer treatment. Mice orthotopically implanted with LM2 cells were split into 6 groups after the tumors reached 2 mm in diameter and subjected to various single or combined agent treatments twice per week [(1) PBS; (2) ATN 30 μg/mouse; (3) Erlo 100 mg/kg; (4) r-Tinagl1 30 μg/mouse; (5) ATN and Erlo; and (6) ATN, Erlo, and r-Tinagl1]. Referring to FIG. 17A, the inhibition of integrin/FAK and EGFR upon each treatment was validated by western blotting and TIC staining.
(§1) For xenograft studies, 8-weeks immunocompromised NOD Scid Gamma (NSG) or immunocompetent FVB females were used. Cells were suspended in 10 μl of PBS for mammary gland injection (MFP), or were suspended in 100 μl of PBS for intravenous injection. For human patient-derived xenograft (PDX, HCL001, kindly provided by Dr. Alana Welm) study, we followed the standard protocol for PDX transplantation, maintenance and digestion of the tumors (DeRose et al., 2011). 2×10^4 cells were suspended in 10 μl of PBS and subjected to MFP injection. For recombinant Tinagl1 (r-Tinagl1), ATN-161, Erlotinib treatments, the mice were injected with 30 μg/mouse, 30 μg/mouse, and 100 mg/kg respectively twice per week via tail-vein. Primary tumors were quantified once per week via caliper measurement. All cell lines used for lung metastasis experiments were stably labeled with a firefly luciferase expressing vector and were monitored by weekly bioluminescent imaging (BLI). At protocol-defined endpoints, lungs were dissected and fixed in bouin's solution and the metastatic lesions were counted.

Series [3] deals with EGFR (Homo sapiens, UniProt P00533). Nature of the series: EGF-induced EGFR activation in LM2 cells (WB). The series is classed as cell-based. Conditions: 1 hour pre-treatment, then EGF 10 min. The protocol:
FIG. 11A is an image of WB analyses where LM2 cells with or without 1 hour pre-treatment of the indicated amount of r-Tinagl1 were then treated with indicated amount of EGF for another 10 min, then lysed.
For WB analysis, cells were collected and lysed with IP lysis buffer described above. After boiled with SDS laemmli buffer, the samples were resolved with SDS-PAGE gel and immunoblotted with standard protocols.
Cells were treated with r-Tinagl1 and the activity of EGFR and integrin/FAK signaling pathways was evaluated. To test EGFR activation, the LM2 cells were subjected to EGF, r-Tinagl1, or EGF/r-Tinagl1 combined treatment. […] Referring to FIGS. 11B and 11C, EGF-dependent activation of EGFR was similarly attenuated in cells expressing Tinagl1 compared to control cells.

The test system of series [4] is SUM159-M1a tumor cells. Nature of the series: 3D in vitro tumor sphere growth assay. The series is classed as cell-based, human. The protocol: To directly test the tumor-specific inhibitory effects of Tinagl1, a 3D in vitro tumor sphere growth assay was performed. Tinagl1-overexpressing SUM159-M1a tumor cells formed significant fewer and smaller spheres.
Series [5] relates to SUM159-M1a cells. Nature of the series: Cell adhesion assay of SUM159-M1a cells on coated plates (luciferase). The series is classed as cell-based, human. The method, then: FIG. 15A is an graph of attached cells quantified by luciferase assay where a 96-well plate was first coated with 10 μg/ml of FN, then SUM159-M1a cells were incubated with 10 μg/ml of indicated antibodies or r-Tinagl1 at 4 C for 30 min, after when cells were seeded on the plate at 30 k cells per well, and 30 min after seeding, the plate was washed with PBS and quantified by luciferase assay.
Integrin α5β1 and αvβ1 are the major receptors for FN, and the interaction between FN and the integrin receptors triggers the activation of the downstream FAK signal pathway. To test whether Tinagl1 may interfere with cell adhesion mediated by the interaction between FN and its receptors integrin α5β1 and αvβ1, SUM159-M1a cells that were pre-incubated with r-Tinagl1 were seeded on the plates coated with FN or other ECM proteins for various period of time (5 min to 2 hours) and the number of adhered cells were quantified after washing. […] Next, SUM159-M1a cells that were pre-incubated with r-Tiangl1 or various integrin-blocking antibodies were seeded on the plate coated with FN, and relative numbers of attached cells were measured.
96-wells were coated with 10 μg/ml of indicated proteins. […] Cells were then lysed, and luciferase activity which represents cell number was measured using the Glomax 96 microplate luminometer (Promega). […]

In series [6] the test system is SUM159-M1a. Nature of the series: SUM159-M1a orthotopic tumors, single or combined agent treatment. The series is classed as in vivo, NSG female mice. As to conditions: SUM159-M1a model. The method, then:
FIG. 17D is an image of WB analyses where NSG female mice were injected with 10^4 M1a cells by MFP injection, and treated with the indicated reagents twice per week when tumors reached to 2 mm in diameter, then after 5 weeks of the treatments, the primary tumors of each group were collected and activation of EGFR and FAK in primary tumor of each group was tested by WB.
FIG. 17E is a graph illustrating tumor volumes of each treatment group from FIG. 17D.
as §1, with “For recombinant Tinagl1 (r-Tinagl1), ATN-161, Erlotinib treatments, the mice were injected with 30 μg/mouse, 30 μg/mouse, and 100 mg/kg respectively twice per week via tail-vein.” left out

B1: r-Tinagl1: full length recombinant human Tinagl1 with 6×His tag at the C-terminus [SEQ ID NO.: 24], expressed in HEK293T cells (protein, listed as Homo sapiens)
chain: MWRCPLGLLLLLPLAGHLALGAQQGRGRRELAPGLHLRGIRDAGGRYCQEQDLCCRGRADDCALPYLGAICYCDLFCNRTVSDCCPDFWDFCLGVPPPFPPIQGCMHGGRIYPVLGTYWDNCNRCTCQENRQWQCDQEPCLVDPDMIKAINQGNYGWQAGNHSAFWGMTLDEGIRYRLGTIRPSSSVMNMHEIYTVLNPGEVLPTAFEASEKWPNLIHEPLDQGNCAGSWAFSTAAVASDRVSIHSLGHMTPVLSPQNLLSCDTHQQQGCRGGRLDGAWWFLRRRGVVSDHCYPFSGRERDEAGPAPPCMMHSRAMGRGKRQATAHCPNSYVNNNDIYQVTPVYRLGSNDKEIMKELMENGPVQALMEVHEDFFLYKGGIYSHTPVSLGRPERYRRHGTHSVKITGWGEETLPDGRTLKYWTAANSWGPAWGERGHFRIVRGVNECDIESFVLGVWGRVGMEDMGHHVDHHHHHH
modifications: C-terminal 6xHis tag
For B1, the “hematologic, GI tract, and liver toxicity” value in series [1] is “no significant hematologic, GI tract, and liver toxicity”; in series [1] (listed as recombinant Tinagl1 protein), “without causing significant toxicity”. The primary tumor growth result in series [2] (LM2, twice per week, ATN 30 μg/mouse, Erlo 100 mg/kg, r-Tinagl1 30 μg/mouse) is listed as “significantly suppressed primary tumor growth”. Besides, the spontaneous lung metastasis entry in series [2] (LM2 tumors, ex vivo BLI at endpoint) is recorded as “reduced spontaneous lung metastasis”. In addition, the “EGF-induced EGFR activation” value in series [3] was “dramatically attenuated”. Besides, the “number and size of tumor spheres” value in series [4] is “reduced the number and size of tumor spheres”. In series [5] (10 μg/ml r-Tinagl1 pre-incubation, 5 min to 2 hours), the “cell adhesion on FN or other ECM proteins” value is given as “blocked cell adhesion mediated by FN but not other ECM proteins”. The “cell adhesion on FN (antibody blocking assay)” value in series [5] (10 μg/ml, 30 min after seeding) was “significantly reduced cell adhesion”. The lung metastasis result in series [6] is reported as “stronger effect than single treatment of Erlotinib”.
